Results from US20180258163A1 (Chugai, published 2018).

How the values were obtained:
Assay in all cases: SPR, Ab captured on Protein L, 20C
[1] = molecular target: T1, soluble human FcγRIIIa (human, UniProt P08637 17-208, limits assumed)
T1 construct: soluble His-tagged form; also called hFcγRIIIa
Experimental: (§1) Soluble FcγRIa and FcγRIIIa in both human and cynomolgus monkey were produced in the form of His-tagged molecules by methods known to those of ordinary skill in the art. An appropriate amount of rProtein L (BioVision) was immobilized onto the Sensor chip CM4 (GE Healthcare) by the amine coupling method and antibody of interest was captured. Next, soluble FcγRIa or FcγRIIIa was injected with a running buffer (used as a reference solution), and was made to interact with the antibodies captured onto the sensor chip. HBS-EP+ (GE Healthcare) was used as the running buffer, and HBS-EP+ was also used to dilute the soluble FcγRIa or FcγRIIIa. To regenerate the sensor chip, 10 mM glycine-HCl at pH 1.5 was used. All measurements were carried out at 20° C.

[2] = molecular target: T2, soluble cynomolgus monkey FcγRIIIa (cynomolgus monkey, UniProt Q8SPW2 17-208, limits assumed)
T2 construct: soluble His-tagged form; also called cynoFcγRIIIa
T2 sequence (Q8SPW2 17-208 limits assumed): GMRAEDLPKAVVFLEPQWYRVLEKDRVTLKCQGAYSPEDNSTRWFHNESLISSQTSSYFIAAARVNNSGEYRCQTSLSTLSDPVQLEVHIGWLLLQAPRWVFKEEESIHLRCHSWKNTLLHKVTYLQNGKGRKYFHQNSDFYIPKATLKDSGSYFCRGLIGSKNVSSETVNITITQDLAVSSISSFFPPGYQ
Experimental: as §1

[3] = molecular target: T3, soluble human FcγRIa (human, UniProt P12314 16-292, limits assumed)
T3 construct: soluble His-tagged form; also called hFcγRIa
T3 sequence (P12314 16-292 limits assumed): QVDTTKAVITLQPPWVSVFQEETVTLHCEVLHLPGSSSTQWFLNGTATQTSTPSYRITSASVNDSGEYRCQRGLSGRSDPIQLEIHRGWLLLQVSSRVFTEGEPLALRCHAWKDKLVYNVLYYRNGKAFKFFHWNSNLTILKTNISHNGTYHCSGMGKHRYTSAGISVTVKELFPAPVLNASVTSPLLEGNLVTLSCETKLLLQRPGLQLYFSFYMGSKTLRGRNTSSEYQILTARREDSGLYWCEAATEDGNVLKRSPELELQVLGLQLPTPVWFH
Experimental: as §1

Measured: binding result

T1 sequence (P08637 17-208 limits assumed): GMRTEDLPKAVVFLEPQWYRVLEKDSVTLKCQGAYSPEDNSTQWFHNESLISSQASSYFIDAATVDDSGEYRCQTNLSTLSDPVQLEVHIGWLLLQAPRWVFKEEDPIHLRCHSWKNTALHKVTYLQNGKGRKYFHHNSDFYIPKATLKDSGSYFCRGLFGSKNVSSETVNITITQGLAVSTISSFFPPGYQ

B1: H1009/L395-F1886s (antibody)
heavy: QVQLVESGGGLVQPGGSLRLSCAASGFTFSDYYLSWVRQAPGKGLEWVGLIRNKDNYHTPEYSASVKGRFTISRDDSKNSLYLTMSDLKTEDTAVYYCARENHRYDVELAYWGQGTLVTVSSASTKGPSVFPLAPSSKSTSGGTAALGCLVKDYFPEPVTVSWNSGALTSGVHTFPAVLQSSGLYSLSSVVTVPSSSLGTQTYICNVNHKPSNTKVDKKVEPKSCDKTHTCPPCPAPELRRGPKVFLFPPKPKDTLMISRTPEVTCVVVDVSHEDPEVKFNWYVDGVEVHNAKTKPREEQYNSTYRVVSVLTVLHQDWLNGKEYKCKVSNKALPAPIEKTISKAKGQPREPQVYTLPPSREEMTKNQVSLTCLVKGFYPSDIAVEWESNGQPENNYKTTPPVLDSDGSFFLYSKLTVDKSRWQQGNVFSCSVLHEALHAHTTRKELSLSP
light: DIQMTQSPSSLSASVGDRVTITCRASEIIYSYLAWYQQKPGKAPKLLIYKAKTHADGVPSRFSGSGSGTDFTFTISSLQPEDIATYYCKHHFGFPRTFGQGTKVEIKRTVAAPSVFIFPPSDEQLKSGTASVVCLLNNFYPREAKVQWKVDNALQSGNSQESVTEQDSKDSTYSLSSTLTLSKADYEKHKVYACEVTHQGLSSPVTKSFNRGEC
notes: copies: 2 + 2
no binding: all assays above

B2: H1009/L395-F1974m (antibody)
heavy: QVQLVESGGGLVQPGGSLRLSCAASGFTFSDYYLSWVRQAPGKGLEWVGLIRNKDNYHTPEYSASVKGRFTISRDDSKNSLYLTMSDLKTEDTAVYYCARENHRYDVELAYWGQGTLVTVSSASTKGPSVFPLAPSSKSTSGGTAALGCLVKDYFPEPVTVSWNSGALTSGVHTFPAVLQSSGLYSLSSVVTVPSSSLGTQTYICNVNHKPSNTKVDKKVEPKSCDKTHTCPPCPAPELRRGPSVFLFPPKPKDTLMISRTPEVTCVVVDVSHEDPEVKFNWYVDGVEVHNAKTKPREEQYNSTYRVVSVLTVLHQDWLNGKEYKCKVSNKGLPSSIEKTISKAKGQPREPQVYTLPPSREEMTKNQVSLTCLVKGFYPSDIAVEWESNGQPENNYKTTPPVLDSDGSFFLYSKLTVDKSRWQQGNVFSCSVLHEALHAHTTRKELSLSP
light: DIQMTQSPSSLSASVGDRVTITCRASEIIYSYLAWYQQKPGKAPKLLIYKAKTHADGVPSRFSGSGSGTDFTFTISSLQPEDIATYYCKHHFGFPRTFGQGTKVEIKRTVAAPSVFIFPPSDEQLKSGTASVVCLLNNFYPREAKVQWKVDNALQSGNSQESVTEQDSKDSTYSLSSTLTLSKADYEKHKVYACEVTHQGLSSPVTKSFNRGEC
notes: copies: 2 + 2
no binding: all assays above
